# Measurements as given in patent US7943146B2, “Immunizing compositions comprising HIV-1 proviral constructs with an inactive p6 gag TSG101 UEV binding domain capable of producing budding-defective viral particles that remain tethered to the cell surface” (priority 2001, dated 2011).
# No end group written: not given here.
# Columns and labels:
# [1] = Cytotoxicity measurement in uninfected PBMCs (MTS staining); assay type: cell-based; conditions: human PBMCs without virus, seven days; read-out: TC50
# Procedure: At assay termination the assay plates were stained with the soluble tetrazolium-based dye MTS (CellTiter Reagent, Promega) to determine cell viability and quantify compound toxicity. MTS is metabolized by the mitochondria enzymes of metabolically active cells to yield a soluble formazan product, allowing the rapid quantitative analysis cell viability and compound cytotoxicity. […] At termination of the assay, 20 μl of MTS reagent was added per well. The wells were incubated overnight for the HIV cytoprotection assay at 37° C. The incubation intervals were chosen based on empirically determined times for optimal dye reduction in each cell type. Adhesive plate sealers were used in place of the lids, the sealed plate was inverted several times to mix the soluble formazan product and the plate was read spectrophotometrically at 490 nm with a Molecular Devices Vmax plate reader.
# [2] = test system: HIV; assay: microbe, parasite or virus in culture; assay type: cell-based, HIV-1
# Procedure: Fresh human blood was obtained commercially from Interstate Blood Bank, Inc. (Memphis, Tenn.). The lymphotropic clinical isolate HIV-1ROJO was obtained from a pediatric patient attending the AIDS Clinic at the University of Alabama at Birmingham. The laboratory-adapted HIV-1IIIB strain was propagated and tittered in fresh human PBMCs; pre-titered aliquots of HIV-1ROJO and Hiv-1IIIB were removed from the freezer (−80° C.) and thawed rapidly to room temperature in a biological safety cabinet immediately before use. Phytohemagglutinin (PHA-P) was obtained from Sigma (St. Louis, Mo.) and recombinant IL-2 was obtained from Amgen (San Francisco, Calif.).
# Fresh human PBMCs were isolated from screened donors, seronegative for HIV and HBV. Leukophoresed blood was diluted 1:1 with Dulbecco's phosphate buffered saline (PBS), layered over 14 mL of Ficoll-Hypaque density gradient in a 50 mL centrifuge tube and then centrifuged for 30 minutes at 600×g. Banded PBMCs were aspirated from the resulting interface and subsequently washed 2× with PBS by low speed centrifugation. After the final wash, cells were enumerated by trypan blue exclusion and re-suspended at 1×10^7 cells/mL in RPMI 1640 supplemented with 15% Fetal Bovine Serum (FBS), 2 mM L-glutamine, 4 μg/mL PHA-P. The cells were allowed to incubate for 48-72 hours at 37° C. After incubation, PBMCs were centrifuged and reset in RPMI 1640 with 15% FBS, 2 mM L-glutamine, 100 U/ml penicillin, 100 μg/mL streptomycin, 10 μg/mL gentamycin, and 20 U/mL recombinant human IL-2. PBMCs were maintained in this medium at a concentration of 1-2×10^6 cells/mL with biweekly medium changes until used in the assay protocol.
# For the standard PBMC assay, PHA-P stimulated cells from at least two normal donors were pooled, diluted in fresh medium to a final concentration of 1×10^6 cells/mL, and plated in the interior wells of 96 well round bottom microplate at 50 μL/well (5×10^4 cells/well). Test drug dilutions were prepared at a 2× concentration in microtiter tubes and […] of each concentration was placed in appropriate wells in a standard format. […] Wells with cells and virus alone were used for virus control. Separate plates were prepared identically without virus for drug cytotoxicity studies using an XTT assay system. The PBMC cultures were maintained for seven days following infection, at which time cell-free supernate samples were collected and assayed for reverse transcriptase activity as described below.
# A microtiter based reverse transcriptase (RT) reaction was utilized. See Buckheit et al., AIDS Research and Human Retroviruses 7:295-302 (1991). Tritiated thymidine triphosphate (NEN) (TTP) was resuspended in distilled H2O at 5 Ci/ml. Poly rA and oligo dT were prepared as a stock solution which was kept at −20° C. The RT reaction buffer was prepared fresh on a daily basis and consists of 125 μl 1M EGTA, 125 μl dH2O, 110 μl 10% SDS, 50 μl 1M Tris (pH 7.4), 50 μl 1M DTT, and 40 μl 1M MgCL2. These three solutions were mixed together in a ratio of 2 parts TTP, 1 part poly rA:oligo dT, and 1 part reaction buffer. Ten microliters of this reactions mixture was placed at a round bottom microtiter plate and 15 μl of virus containing supernatant was added and mixed. […] Opti-Fluor-O (Packard) was added to each sample and incorporated radioactivity was quantified utilizing a Wallac 1450 MicroBeta Plus liquid scintillation counter.
# [3] = target: T1, Tsg101 (Homo sapiens, UniProt Q99816); assay: Two-hybrid liquid culture β-galactosidase assay; assay type: cell-based; design: expressed in transfected cells; conditions: full length Tsg101, liquid culture, absorbance 575 nm
# T1 sequence (Q99816 1-390): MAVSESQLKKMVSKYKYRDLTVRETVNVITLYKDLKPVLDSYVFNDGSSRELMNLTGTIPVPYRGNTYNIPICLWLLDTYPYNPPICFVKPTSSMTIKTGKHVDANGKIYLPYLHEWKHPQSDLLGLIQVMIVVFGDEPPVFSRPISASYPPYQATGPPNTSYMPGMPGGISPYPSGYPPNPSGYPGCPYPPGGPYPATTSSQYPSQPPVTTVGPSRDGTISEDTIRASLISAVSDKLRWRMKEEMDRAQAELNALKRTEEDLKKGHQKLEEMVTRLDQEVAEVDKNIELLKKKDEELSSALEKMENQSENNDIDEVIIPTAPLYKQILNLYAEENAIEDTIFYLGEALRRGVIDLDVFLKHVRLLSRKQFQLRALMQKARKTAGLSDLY
# Procedure: The interactions between TSG101 and wild-type p6gag (WT) or the p6gag PTAP (SEQ ID NO:1) mutants were further quantitated by performing liquid culture β-galactosidase assays. Cultures were grown overnight in synthetic media (−Leu, −Trp, +glucose) in 96 well plates, normalized for optical density, and lysed by addition of 6× lysis/substrate solution in 6× Z-buffer (60 mM KCl, 6 mM MgSO4, 360 mM Na2HPO4, 240 mM NaH2PO4, 6 mg/ml CPRG, 0.12 U/ml lyticase, 0.075% NP-40). Cultures were incubated for 2 hr at 37° C., clarified by centrifugation, and the optical absorbance of each supernatant was measured (575 nm). Full length Tsg101 bound wild-type p6 in the two-hybrid liquid culture assay, resulting in high levels of β-galactosidase activity (>300-fold over background). […] Each of these point mutations also arrests HIV-1 budding at a late stage (Huang et al. 1995).
# [4] = target: T1, Tsg101; assay: Yeast two-hybrid filter lift assay for β-Gal activity, Tsg101 with p6gag constructs; assay type: cell-based; design: expressed in transfected cells; host or cells: Saccharomyces cerevisiae strain Y189; key to Interactions Between Tsg101 and p6gag (β-Gal activity): +: Positive β-Gal activity indicates that the p6gag wild type or mutant protein interacts with Tsg101; conditions: for Interactions Between Tsg101 and p6gag (β-Gal activity): yeast strain Y189, activation domain-Tsg101 plus binding domain-p6gag construct, X-Gal filter lift
# Excerpt: Yeast two-hybrid assays were utilized to determine the effect of amino acid substitution mutations in the PTAP (SEQ ID NO:1) motif of HIV p6gag on the interaction between Tsg101 and p6gag. To prepare a yeast two-hybrid activation domain-Tsg101 construct, a DNA fragment encompassing the full-length coding sequence for Tsg101 according to GenBank Accession No. U82130 was obtained by PCR from a human fetal brain cDNA library and cloned into the EcoRI/Pst1 sites of the activation domain parent plasmid GADpN2 (LEU2, CEN4, ARS1, ADH1p-SV40NLS-GAL4 (768-881)-MCS (multiple cloning site)-PGKlt, AmpR, ColE1_ori).
# To prepare the yeast two-hybrid DNA binding domain-HIV1 p6gag construct, a DNA fragment corresponding to the HIV1 p6 peptide derived from the HIV1.NL43 strain GAG protein was obtained by PCR from the NL43 containing plasmid R9Δapa and was cloned into the EcoRI/Sal1 sites of the binding domain parent plasmid pGBT.Q. The sequence of the amplified insert is shown in SEQ ID NO:34.
# The following amino acid substitution mutations were introduced by PCR into the HIV1 p6gag sequence in the yeast two-hybrid binding domain-HIV1 p6gag construct described above. The mutations were verified by DNA sequence analysis.
# To test the effect of the mutations, yeast cells of the strain Y189 purchased from Clontech (ura3-52 his3*200 ade2-101 trp1-901 leu2-3,112 met gal4 gal80 URA3::GAL1p-lacZ) were co-transformed with the activation domain-Tsg101 construct and one of the binding domain-mutant p6gag constructs or the binding domain-wild type p6gag construct. Filter lift assays for β-Gal activity were conducted by lifting the transformed yeast colonies with filters, lysing the yeast cells by freezing and thawing, and contacting the lysed cells with X-Gal. […] All binding domain constructs were also tested for self-activation of β-Gal activity.
# [5] = target: T2, interaction between GAGp6 and Tsg101 (Homo sapiens, UniProt Q99816); assay: In vitro binding assay: GST-p6 on plate, myc-tagged Tsg101 (residues 1-207), competition by peptide; conditions: FIG. 3, different peptide concentrations, fluorescence signal
# T2 construct: Drosophila S2 cell lysate myc-tagged Tsg101 (residues 1-207); made in house; host or cells: Drosophila S2 cells (Tsg101, used as cell lysate)
# T2 sequence (Q99816 1-207): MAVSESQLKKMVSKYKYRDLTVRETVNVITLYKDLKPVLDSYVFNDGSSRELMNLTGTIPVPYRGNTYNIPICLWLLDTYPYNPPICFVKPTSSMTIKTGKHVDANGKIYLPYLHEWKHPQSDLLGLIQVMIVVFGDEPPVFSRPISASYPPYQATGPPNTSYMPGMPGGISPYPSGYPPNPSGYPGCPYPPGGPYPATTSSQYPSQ
# Procedure: A fusion protein with a GST tag fused to the HIV-1 GAGp6 domain was recombinantly expressed and purified by chromatography. In addition, a GAGp6 peptide containing the first 14 amino acid residues (“p6(1-14)”) was synthesized chemically by standard peptide synthesis methods. The peptide was purified by conventional protein purification techniques, e.g., by chromatography.
# Nunc/Nalgene Maxisorp plates were incubated overnight at 4° C. or for 1-2 hrs at room temperature in 100 μl of a protein coupling solution containing purified GST-p6 and 50 mM Carbonate, pH=9.6. This allowed the attachment of the GST-p6 fusion protein to the plates. Liquids in the plates were then emptied and wells filled with 400 μl/well of a blocking buffer (SuperBlock; Pierce-Endogen, Rockford, Ill.). […]
# Plates were then washed 4×100 μl with 1×PBST solution (Invitrogen; Carlsbad, Calif.). […] Plates were then read on a Packard Fusion instrument at an excitation wavelength of 325 nm and an emission wavelength of 420 nm. […]
# Different concentrations of the p6(1-14) peptide were tested, and the relative intensities of the fluorescence signals obtained at different concentrations were plotted against the peptide concentrations. […]
compound,measurement,setting,value
"Cc1cn([C@H]2C[C@H](N=[N+]=[N-])[C@@H](CO)O2)c(=O)[nH]c1=O [AZT, 3′-Azido-3′-deoxythymidine, reference compound]",CC50 at 7 days,[1],> 1000 nM
same,IC50,"[2]; Human immunodeficiency virus 1, PBMC, 168 h, PHA-P stimulated human PBMCs, MOI≈0.1, seven days, RT activity in supernate",8 nM
same,Comments (anti-HIV activity),[2]; human PBMCs,Control; Highly Active
p6(wt): wild type HIV1 p6gag (NL43 strain) as yeast two-hybrid DNA binding domain construct,β-galactosidase activity,[3],> 300 fold over background
same,Interactions Between Tsg101 and p6gag (β-Gal activity),[4],+
"p6(1-14): GAGp6 peptide containing the first 14 amino acid residues, synthesized chemically (LQSRPEPTAPPEES)",inhibition of the interaction between GAGp6 and Tsg101,[5],competitive inhibition
p6(E6G): HIV1 p6gag binding domain construct with E6G substitution outside the PTAP motif (LQSRPGPTAPPEESFRFGEETTTPSQKQEPIDKELYPLASLRSLFGSDPSSQ; not fully specified),Tsg101-p6gag interaction (in words),[4]; summary of Table II,did not result in the elimination of the Tsg101-p6gag interaction
same,Interactions Between Tsg101 and p6gag (β-Gal activity),[4],+
